Assay results as given in US8304189, “Nucleic acid molecules containing recombination sites and methods of using the same” (Life Technologies Corporation).

Target: Vaccinia DNA topoisomerase I (Vaccinia virus, UniProt P68698 P68698:1-314)
Assay: covalent charging of vector at CCCTT, 37 C 15 min, NEB buffer 1; charged vector cloned the test insert with 93.6-95.1% efficiency
Conditions: ligated to EcoRI-cut pCR8/GW ends
Description: TOPO charging. To 5 μg of ligated DNA, 3 μg of TOPO-5 oligonucleotide (5'-CAACA CTATC GGAAT A-3' (SEQ ID NO: 66), phosphorylated on the 5' end), 10 μl 5× NEB #1 (New England Biolabs, Inc., Beverly, Mass. cat. no. M0202S), and 5 μg of Vaccinia Topoisomerase I was added and the volume adjusted to 50 μl with water. This reaction was incubated at 37° C. for 15 minutes before addition of 5 μl of 10× TOPO Stop Buffer (1 M Tris-HCl, pH 7.5, 500 mM EDTA). The TOPO adapted vector was then gel purified and quantified using the Hoechst dye assay.
Testing of TOPO cloning efficiency. TOPO cloning efficiency was determined using a 500 bp PCR fragment containing a bacterial lac promoter driving the lacZ alpha fragment, this positive control fragment is found in some of Invitrogen's TOPO T/A cloning kits, for example, cat. no. K4300-01. Cloning of this fragment generated blue colonies on X-gal plates and colonies without the cloned fragment were white. The ratio of the total number of blue colonies to the total number of colonies was representative of the efficiency of the TOPO reaction. Twenty nanograms of the Taq polymerase generated 500 bp PCR product was used per TOPO reaction.
T/A TOPO QC testing. The pCR8/GW/TOPO system was tested by TOPO cloning a Platinum taq-generated 500 bp test insert and selected ORFs into pCR8/GW/TOPO. TOPO cloning efficiency was measured using standard QC procedures. […]

B1: TOPO adapter duplex (TOPO-1/TOPO-5/TOPO-4) (dsDNA)
DNA 1: AATTCGCCCTTATTCCGATAGTG
DNA 2: CAACACTATCGGAATA
DNA 3: AGGGCG
modifications: 5'-phosphate on TOPO-5
- binding result: binds
